Laboratory results: article PMC9784577, “Cross-Feeding and Enzymatic Catabolism for Mannan-Oligosaccharide Utilization by the Butyrate-Producing Gut Bacterium Roseburia hominis A2-183” (Microorganisms, 2022)

How the values were obtained:
[1] = target: α-galactosidase RhGal36A (Roseburia hominis A2-183); experiment: native gel or EMSA; native-PAGE on 4-15% Mini-PROTEAN TGX precast gels, 30 min at 150 V, Native PAGE marker; size of the oligomer from the band's apparent mass against the monomer's mass
[2] = target: β-1,4 mannan-oligosaccharide phosphorylase RhMOP130A (Roseburia hominis A2-183); experiment: as above

Row | stoichiometry N [1] | stoichiometry N [2] | Substance
1 | 4 | – | α-galactosidase RhGal36A (enzyme)
2 | – | 6 | β-1,4 mannan-oligosaccharide phosphorylase RhMOP130A (enzyme)
